Data taken from the NTF2 design screens of Basanta et al. (2020).

Assay: protease stability score; higher = more stable; yeast display proteolysis, trypsin and chymotrypsin;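 further: log10 excess protease needed over predicted unfolded state with 0 meaning unfolded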

In order of falling protease stability score:
1. DEKKQAEDFFDTWVEIVKSGDEEKAQQMADPNVRFQIGDKSWRGREDFKKFLKTQLKRADHIRFEVQRITVRPNHIEVQFRIVIDNNGQDSRDTLTFVIKVNGDRLRLVEMHEG  1.43
2. DEKKIYDLLKKMVEAYVSGNAEEVRKLLKDDGTLDVGDQQYHGVEQVTKAAEEFQKYGVELHLTDYRFDGDRVDVKAVAHLGGNTWEFTVTVQADGGKVDRLVFHVSEEAVKYIQKG  1.28
3. DEKKLQELLKKAFEAALNGDEDKLRKLLAPNVKYKYGDTEREGEDAVRLVMQIVKHIGVEVKKQEEEVKGGRMRAVFRYDNGSQTVQTTAEVQYEGDKVKEVRVEITDEIKKVMQRG  1.17
4. DEKKAKEAAHRLLEAMVTGDPRKLNENADEDVQVEYGDKSYTGREKLNEWAHEFQKRVDHVRIESIHQRGDTATVKVRVEHNGETDTFVLIVEAHNGRAKRIRQETR  1.11
5. DEKKIKDLARRVMQYYVSGNTEEVEKLGKDDVQVHFGDQTYHGVEQVKKVVKEFKEYGVELQLKDIQYDGDRADAEVEVHAGGHTWKFTVTVQLDGGKVDNLTFHVSDEAKKAIEHG  0.982
6. DEKKLKDKAETLVENFKTGNEEEFSRMADENATLVVGDKTLRGREDLQTFISEFKKTVDHVEVRHVTADNGRVTIDMVVDINGRRVRVHVVIKFKNGHIKDVRVDPRMKRAMDQ  0.905
7. DEKKAEEMLRRVVKLFRNGDVETVRKMGKDDVEVKYLDETRHGPDAMKKMLEKMKKLGAEVEYKEVHVEGDKATVKVEANIDGTTVRFHVTYQVKDHRVENVKVEYSEKAKKAIKHG  0.754
8. DEKIKQNIEEFLKAVQHGDEERMTQLVDPNAKIVVGNQRVHGMEEYARDIVRKVKEIRIKIDRMHISVQGNKAVITMVYVININGKPVTFRAVYIYEVHDGRVKRVKNNIPEEDQKKVDS  0.733
9. DEKKLEEVAKKVMDAMRKGDSETLVKLGKPDVTFKVADIEFKGQDQLRKYYKLDQDVGVELHLKEEKKEGNKFTMVYDARFGGTQDTVEVEVEVKDEKVDKARAKFTEEYAKHIQKG  0.586
10. DEKKAEELAKKAFKYIENGDREEAQKMLKDNVEYHYANTTYHGKDAAKFVVDVVQKVGVEVKVQEQEVRGNTVRARFQYKNGDTEVETEVEVTYEGDRVKKAEVKLSEEVMKLVHQG  0.566
11. DEKKKAEEQHKKLEHALREGDPDEAKKMMDPNVRAQVGETKFHGREQMAKFWMTFNKRADHVEFELRDLHIENGRIRIHAVVRADVNGQTVRINIRIILTKHGDQFVAVRIEQK  0.499
12. DEKKLKELAEELVKADRTGNPDMIKKLGKPDVEFHVANVTMHGSEQVYKYYEKVQRQGNEVHIKRQEVRGDHVEVHYTVKVGGTEVEVTMRLHAKDHKVDKAEAHFNKEYLDHVKKG  0.413
13. DEKKIKDLLLKLIEMYVSGNKEEVKKVGKDDVELHAGNQTYHGYEQMAKMAEKLKRYGVKLQITDAKVEGDKLTAKVDFHYGGETQKLEFVVQADGGKVDRMKIELSEEVVKVARKG  0.377
14. DEKKAKELAETMFKYIQNGDEEKAQKYVDDNVEYKYIDKEYEGKDVVKEVVDKIKKLGVEVKLKRAEVKGDRVTADFEYKHGDNTVRTTVEVQYEGDRVKKARVELTDEARKVIDKG  0.352
15. DEKKAEDAARQMLEALRTGDPKRMVDHMDPNARALVGDTRYHGREEASKMVEHIRRRVDHVRVDNFRVRGNKLHLHAVFDSNGRRERVQIRADVHNGKIKVFEITSQ  0.342
16. DEKKLLDLARVALEYLQRGNSDQFAKMLDEGGQMNVGDTQINGSDQVKKYVKKFKDQGVHVEYKEQEEKGDTVTVKTEAELGDAKVTFEVHYVAKGDRVERVEVRMNKEQITEFKKS  0.272
17. DEKKLEELLRKLFEAAQKNNVDEMRKFLAPDVQYKYGDKRYEGEKVADTAVKVMREVGAEVRVKEEEVKGGEAEATFQYHKGDKTVETTARVRYEGDKVKEVEVKLSEEVKKILEQG  0.128
18. DEKKAQKLMKKAFKMIKDGNEDEVRKLGKPNVKYEYADQQYEGEDAVRVAVQIVKRVGAEDKTETQEVKGDTARAVFVYKKGDTEVQTTAEVIYKGDKMEEARVKLSDEVKKVVHQG  0.124
19. DEKHYKKVLKRVLDYFMKGNKEQVKKIAKPDVEFHAGKMKIEGTDHLAKYYEKLQRKGVKLEIKEQHVTGDTVEVKYELEVGGTKVTVKATLKVKDDKVDKAEAKNDDDYHKRVKKG  0.117
20. DEKKALTLAKKAFEVIKKGDKEKAKKLGKPDVKYEYLDKKYTGPEAMEHIVEYVQKLGMEVRVKRNEEKGGTVRVDFDYQRGDQQVRTTAEVEYEGDKLKRFRVEMSEEVKKHITQG  0.093
21. DEKHVKKVVDRVLDALEKKNKDELVKLVKPDVEFHVADTKFEGTDQLHKYYDKVFRKGVEFHVKEVKVEGNKAQVRYDVRAGGHQETVQFEVTVKDERVDRARAEMTEKYKKLVTKG  0.086
22. DEKKALEVIDRALKYVKNGNKEQVQQMGAPDVEVQNGDARNKGVEEMKKFAERVKKAGNQFEYKEKTTKGNKVKTVVQVTVNGQTIEYEVEVVAEGGKVKHWVVKMDETFKKVVDKS  0.008
23. DEKKLLEIAKEVADYVRNGNADQVAKLGKEGIQANFGDEQVNGPDQMREYVKKVKDLGLHAEYKEEKYEGDTVELHTQAHLGDVTADFTVTYIVKGDKLDKVEVRFNKEQMKKFKTS  0.007
24. DEKKIYEVLHKAVQMYVSGNDEEVRKLLKKDAEIEVADHKYRGVDEVVKVVDQFRKYGVELQIDDAKFDGNKVNAELTLHAGGETWKFTVTAEADGGKVDKVTFHVTEEVKKRIQKG  -0.045
25. DEKKATKVAKQIQDMMVKGDSDKVEKVGKPNVEFQVGDVKMKGPDELKKYYKKVKDVGNELHVKEAKVEGDTVEVHYDLRHGGTQATVTVRIELKDDKVDRAKVDVDEHYKKIVKKG  -0.068
26. DEKKAEELARTVFEMADKGDKDTLRKIGMPNGEYKYVDKRYEGEQLALILVEQIKKVGAQVKVKRMEVRGDKVQADFDYEYGDKTVRTTARLEYKGDKLLRAEVEVSEEVKKIMTQG  -0.073
27. DEKKAEEVATRVLEYIRDGNADDVKKLGKEGGQVQLGDTQLNGVDQLYKYVQDFHKQGIHVEYKEHEAKGDTVTFHTTARRGDAQIEFEVHYVVKGDVVERMEVRQDRKQVKEFKDS  -0.084
28. DEKIVQAMKRYMDARQKGDPEDFNNLVDPNVRLNVGDKRVHGRERISEQIQREQRKMRIEIKHVEFRDQGEKVQLRVKYVVEINGRPRHASQRMEASLDDGKIKSIEIRVDEEVKKIEKV  -0.088
29. DEKKERQRAKELVKAMQHGDESKLKELLDENARLNVGDHKFHGMEEAHKTMRELWTRVDHLTVKSVDVTNGKIDIVVVFRHNGKNDRQVLEADVHNGRVRQQQIKSE  -0.14
30. DEKKEEQWVRDVKKHAETGNWHDFWRQADPNVRFQVGDTTLRGREEAVKVAEDMRRQVDHQRVEHVDAHNGKVTVDAVLDINGRQQKVEYVVEMHNGRIKRINFSYS  -0.142
31. DEKKLHELLLKMVQYYVSGHTEKVKEMGKDDVNLNAGDYTYHGVEQVATVADRMRQYGVKLEVKNRRQEGDRLEVEVEFHVGGQTVTVTFKVKADGGKVDEMRIDFSEEADKMARKG  -0.157
32. DEKKALEIAEKVARYVAEGNSDKAKELGKEGVEAKVGDTTVHGPDQLKEYVKKVKDQGNRYEYKETHKEGNTVQFKTEVEKGNAKVEFTAEYQVEGDKLVRAEVRFNKEQQKKFQKS  -0.214
33. DEKKQQELAETFWKIFKTGDEEKLKQMMPQDVRARYGDKSVTGRDRIVTTIKKRVKRADHINVKHISVHNGKIHIDAVIVVDGRKQRDTINIKMRNGHIKNINVDPEKDKQNFS  -0.217
34. DEKKDREAAQKAARAFVKGNKDKVKELGKEDVTAKFGDEEFRGVDQVTKAMEHWLKMGDQMQLREEKDEKNHVKVRTDQRVGGYEVTTEATYHAQGGRVDHAEDREPPEAQKLMQKG  -0.258
35. DEKKIKEYVHELNRAFQNGDEDRLNQMMDKNVRAQYGDKEYHGRENAKKVMKDFRDQFDHLEIHSVNVRGDRVDIEAEAHNNGRTEHWIITIRLHNGHMTSIVIRKS  -0.319
36. DEKKQAKRLHETMDRILTQGNPHEAKHLFDKDARIDVGDKKVHGREQIAKSLAERVRQVDHIHNQVDHVEVDNGQLNMTVRFQQETNGKTHDYSAQHRVDIDGDKVKVVKVTHQ  -0.336
